We go through five molecules from PMC5682932 (The Biochemical journal, 2017).

The term stoichiometry N denotes the number of molecules, sites or subunits per partner or assembly. The Kd is the equilibrium constant for the complex coming apart. Lower therefore signals a tighter complex.

One assay has as its target T1, PPIH W133A mutant (human, UniProt O43447 1-177, W133A).
T1 sequence: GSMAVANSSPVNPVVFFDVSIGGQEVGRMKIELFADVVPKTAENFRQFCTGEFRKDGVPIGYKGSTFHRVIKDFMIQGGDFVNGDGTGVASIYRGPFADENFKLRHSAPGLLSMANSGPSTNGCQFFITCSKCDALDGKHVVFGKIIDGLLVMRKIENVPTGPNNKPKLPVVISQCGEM
Description: SPR.

For assay [1], the target named is T2, peptidyl-prolyl isomerase H (PPIH), full length, wild type (human, UniProt O43447 1-177). Description: AUC.
The target of assay [2] is T2, peptidyl-prolyl isomerase H (PPIH), …. Description: SPR.

Positions count from the first letter of the chain named. Numbers in names are those of the source.

B1: pre-mRNA processing factor 4 (PRPF4), residues 106-169 (domain or fragment, human, UniProt O43172 106-169, looked up)
chain: SEVKACLRALGEPITLFGEGPAERRERLRNILSVVGTDALKKTKKDDEKSKKSKEEYQQTWYHE
For B1, the binding result in the assay with PPIH W133A mutant was “binds”. Besides, in assay [1], the “stoichiometry N” value came out at 2.

B2: PRPF4 residues 106-169 with F122A (domain or fragment, human, UniProt O43172 106-169, looked up)
chain: B1 chain with F17A
In the assay with PPIH W133A mutant, B2 yielded a Kd of 1 µM.

B3: pre-mRNA processing factor 4 (PRPF4), residues 1-98 (domain or fragment, human, UniProt O43172 1-98, looked up)
chain: MASSRASSTQATKTKAPDDLVAPVVKKPHIYYGSLEEKERERLAKGESGILGKDGLKAGIEAGNINITSGEVFEIEEHISERQAEVLAEFERRKRARQ
For the molecule B3, the binding result with PPIH W133A mutant is “binds”. The Kd in assay [2] came out at 10.8 ± 1.37 µM.

B4: pre-mRNA processing factor 4 (PRPF4), residues 1-169 (domain or fragment, human, UniProt O43172 1-169, looked up)
chain: MASSRASSTQATKTKAPDDLVAPVVKKPHIYYGSLEEKERERLAKGESGILGKDGLKAGIEAGNINITSGEVFEIEEHISERQAEVLAEFERRKRARQINVSTDDSEVKACLRALGEPITLFGEGPAERRERLRNILSVVGTDALKKTKKDDEKSKKSKEEYQQTWYHE
On to B4, for which the binding result in the assay with PPIH W133A mutant is reported as “binds”. This molecule returned an equilibrium dissociation constant (Kd) in assay [2] of 0.39 ± 0.04 µM.

B5: PRPF4 residues 1-169 with F122A (domain or fragment, human, UniProt O43172 1-169, looked up)
chain: B4 chain with F122A
In the case of B5, binding in assay [2] was put at a Kd of 15.6 µM.
